Test results: the nanobody polyreactivity screen of Harvey et al. (2022)

Experiment: yeast display, Sf9 membrane polyspecificity reagent, FACS + sequencing; frameworks hold sequencing errors
In short: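 Galactose induction of a Saccharomyces cerevisiae BJ5465 synthetic nanobody display library ran 36–48 hours. The cells were then stained for 1 hour at 4 °C with 10% biotinylated, detergent-solubilized Sf9 membrane reagent, pulled down on streptavidin microbeads and FACS-sorted into low and high (top ~1%) gates on expression and reagent-binding fluorescence. Labels for polyreactivity follow the gate of origin.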

Sequence	polyreactivity (PSR sort gate)
QVQLVESGGGLVQAGGSLRLSWAASGLIFVYNDMGWYRQAPGKEMELVAAIRWSSGRTYYADSVKGRFTISRDNAKNTVYLQMNSLKPEDTAVYYCAAKGVGPERGGYDYWGQGTQVTVSS	high polyreactivity
QVQLVESGGGLVQAGGSLRLSCAASGIIFNRYAMGWYRQAPGKERELVAAITYSGDNTYYADSVKGRFTISRDNAKNTVYLQMNSLKPEDTAVYYCAAVSSRGGDYYWGQGTQVTVSS	high polyreactivity
QVQLVESGGGLVQAGGSLRLSCAASGIIYDAYAMGWYRQAPGKERELVAAISSGGSTYYADSVKGRFTISRDNAKNTVSLQMNSLKPEDTAVYYCAAETEYPSWYDYWGQGTQVTVSS	low polyreactivity
QVQLVESGGGLVQAGGSLRLICAASGSIFDVNAMGWYRQAPWKERELVAAISDSGGSTYYADSVKGRFTISRDNAKITVYLQMNSLKPEDTAVYYCNAVWSWYNYDDFDYWGQGTQVTVSS	low polyreactivity
QVQLVESGGVLVQAGCSLRLSCAASGRTIPWYTMGWYRQAPRKERELVAAISNGGSTYYADSVKGRFTISRDNAKNTVYLQMNSLIPEDTAVYYCNSLVYKYIYNYDYWGQGTQVTVSS	high polyreactivity
QVQLVESGGGLVQAGGSLRLSCAASGRIFVIYAMGWYRQAPGKERELVAVINDDGSTNYADSVKGRFTISRDNAKNTVYLQMNSLKPEDSAVYYCNAVYYSYRYGHDYWGQGTQVTVSS	low polyreactivity
QVQLVESLGGLVQAGGSLRLSSAASGSIFRRYAMGWYREAPGKERELVAAITSGDTTKYADSLKGRFTISRDNAKNNVYLHMNSLKPEDTAVYYCNKKGWPRFVHGFLRRDDYWGQGTQVTLSS	low polyreactivity
QVQLVESGGGLVQAGGSLRLSCAASGFIFADYTMGWYRQAPGKERELVAAITWSGDSTYYADSVKGRFTISRDNAKNTVYLQMNSLKPEDTAVYYCNAVNDWYYAYYGVTSFRSYDYWGQGTQVTVSS	low polyreactivity
QVQLVESGGGLVHAGGSLRLSCAASGFTFGDNAMGSYRQAPGKERELVADIDSDGSTYYADSVKGRFTISRDNAKNTVYLQMNSLKPEDTAVYYCAKRQAFKQAPYEYWGQCTQVTVSS	low polyreactivity
QVQLVESGGGLVQAGGSLRLSCAASGSIFAPYAMGWYRQAPGKERELVAAINNNGGRTYYADSVKGRFTISRDNAKNTVYLQMNSLKPEDTAVYYCAADIYPDWIYLLYGYWGQGTQVTVSS	low polyreactivity
QVQLVESGGGLVQAGGSLRLSCAASGRIFSYNAMGWYRQEPGKERELVASITSGGGRTYYADSVKGRFTISRDYAKNTVYLQMNSLKPVDTAVYYCAADGEVKYDYWGQGTQVTVSS	low polyreactivity
QVQLVESGRGLVHAGGSHRISCAASGRTFYYYAMGWYRQAPGKERELVAAITRGGSTNYADSVKGRFTISRDNAKITVYLQMNSLKPEDTAVYYCAQPWFYQNRGYDYWGQGTQVTVSS	low polyreactivity
QVQLVESGGGLFQEGGSLRLSCAASGSTFSVNAMGWYRQAPGKERELVAAISKRVGSTYYADSVKGRFTISRDNAKNTVYLQMNSLKPEDTAVYYCAAVIVHYGRAYDYWGQGTQVTVSS	high polyreactivity
QVLLVESGGGLVQAGGSLRLSCAASGRIFGYNTMGWYRQAPGKERELVASISYSGGGTYYADSVKGRFTISRDNAKNTVYLQMNSLKPEDTAVYYCNALSYGYDDAYGYWGQGTQVTVSS	low polyreactivity
LVQLVESGGGLVQAGGSLRLSCAASGIIFRFYDMGWYRQAPGKERELVAAISWDGTSTYYADSVKGRFTISRDNAKNTVSLQMNSQKPEDTAVYYCAADWVGSPWWYLWYGYWGQGTQVTVSS	high polyreactivity
QVQLQESGGGLVQAGGSMRLSCAASGSISELSPMGWYRQAPGKERELVAGISTGGSTNYADSVKGRFTISRDNAKNTVYLQMNSLKPEDTAVYYCAAASYGEGSYDYWGQGTQVTVRS	high polyreactivity

Sequence	polyreactivity (PSR sort gate)
QVQLVESGGGLVQAGGSLRLSCAASGYTSRTNAMGWYIQAPGKERELVAAITWRGTRTYYADSVKGRFTISRDNAKNTVYLQMNSLKPEDTAVYYCATQWIRKYDYWGQGTQVTVSS	high polyreactivity
QVQLVESGGGLVQAAGSLRISCAASGLIFNYYAMGWYRQAPGKERELVAAISKDGGSTYYADSVKGRFTISRDNAKNTVYLQMNSLKPEDTADFYCAARTFRISRMDYRGQGTQVTVSS	high polyreactivity
QVQLVESGGGLVQAGGSLRLSCAASGYTIFFNVMGGYRQAPGKERELVAAISYSGGSTNYADSVKGRFTISRDNAKNTVYLQMNSLKPEDTAVYYCNTVRSPPGHVYWGEGTQVTVSS	low polyreactivity
QDQLVESGGGLVQAGGSLRLSCAASGSIFWLYTMGWYRQAPGKERELVAAITGSGSSTYYADSVKGRFTISRDNAKNTVYLQMNSLKPEDTAVYYCAAYWSSARRRYDYWGQGTQVTVSS	high polyreactivity
QVQLVESGGGLVQAGGSLRLSCAASGLTFKYYTMGWYRQAPGKERELVADISRTGRTSYADSVKGRFTISRDNAKNTDYLQMNSLKPEDTAVYYCNADFYVSGYSLFASIYDYWGQGTQVTVSS	high polyreactivity
QVQLVESGGGLVQAGGSLRLSCAASGSTFQLYDMGWYRQEPGKERELVAGISRDGSTYYADSVKGRFTISRDNAKNTVYLLMNSLKPEDTAVYYCAAKFYGNKRDLYYWGQGTQVTVSS	low polyreactivity
QVQLVESGGGLVQAGGSLRLSCAASGSIFRDNAMGWYRQAPGKERELVASIRSSGGRTYYADSVKGRFTISRDNAKNTVYLQMNSLKPEDTAVYYCARRWYPVTPYARMYYWGQGTQVTVSS	low polyreactivity
QVQLVESGGGLVQAGGSLRLSCAASGFIFQGYAMGWYRQAHGKEREFVAAITTSGGTTYYADSVKGSFTISRDNAKNTVYLQKNSLKPEDTAVYYCAARGATVSTRIYGYWGQGPQVTVSS	high polyreactivity
QVQLVESGGGLVQAGGSLRLSCAASGSIFAGYAMGWYRQAPGKERELVAAISKSAGSTYYADSVKGRFTISRDNAKNTVYLQMNSLKPEDTAVYYCAARTFNTYPRYYYWGQGTQVTVSS	high polyreactivity
QVQLVESGGGLVQAGGRLRLSCAASGSNFGSNAMGWYRQAPGKESEFVAVITCRVGDTYYADSVKGRFTISRDNAKNTVYLQMYSLKPEDTAVYYCNVDWKVYGAPDYRIAWKYDYWGQGTQVTVSS	low polyreactivity
QVQLVESGGALVKAGGSLRLSCAASGYIFYGYAMGRYRQAPGKEWELVAAITVRGGSTYYADSVKGRFTISRDNAKNTVYLQMNSLKPEDTAVYYCAAAPQFTFGVGYWGQGTQVTVSS	low polyreactivity
QVQLVESGGGLVQAGGSLRLSCAASGFIFKSYAMGWYRQAPGKERELVAAISGRGGSTYYADSVKGRFTISRDNAKNTVYLQMNSLKPEDPAVYYCNVGPSTYYQYDYWGQGTQVTVSS	high polyreactivity
QVQLVESGGGLVQAGGSLRLSCAASGFTFVFYAIGWYRQAPGKARELVAAISSRGGSTYYADSVKGRFTISRDNAKNTVYLQMNSLKPEDTAVYYCNVVSPYWTTYEEYYWGQGTQVTVSS	high polyreactivity
QVQLVESGGGLVQAGGSLRLSCAPSGGTIAPYAMGWYRQASGKESELDATISNSGTSTNYADSVKGRFTISRDNAKNTVYLQMNSLKPEDTAVYYCAKRYHQYRWRGWLWGFDYWGQGTQVTVLS	high polyreactivity
QVQLVESGGGLVQAGGSLRLSCAASGLIFRRYAMGWYRQAPGKERELVAAINLSGGSTYYADSVKGRFTISRDNAKNTVYLQMNSLKPEDTAVYYCNAVSVYSLPRVGGRYDYWGQGTQVTVSS	high polyreactivity
QVQHVESGGGLVQAGGSLRLSCAASGRIFGTYAMGWYRQAPGKERELVAAISWSGGRTYYADSVKGRFTISRDNAKNTVYLQMNSLKPEHTAVYYCAARGVPRDGRHHYRYDYWGQGSQVTVSS	high polyreactivity
